Experimental data as given in patent publication US20170166624A1 (University of Texas, published 2017).
“And” between values parts separate entries of the source, which are not always exact repeats. Equal entries are not always repeated.

T1: TGF-β2 K25R I92V K94R (TGF-β2TM) (UniProt P61812 303-414, K25R; I92V; K94R)
T1 construct: mature
T1 sequence (looked up): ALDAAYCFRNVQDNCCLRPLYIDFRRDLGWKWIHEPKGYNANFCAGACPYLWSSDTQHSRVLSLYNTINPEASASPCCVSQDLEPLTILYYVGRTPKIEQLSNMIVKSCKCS

T2: TGF-β3 (UniProt P10600 301-412)
T2 sequence (looked up): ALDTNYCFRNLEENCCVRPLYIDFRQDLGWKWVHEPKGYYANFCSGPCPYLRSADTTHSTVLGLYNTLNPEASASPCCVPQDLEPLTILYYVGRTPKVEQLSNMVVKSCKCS

B1: purified TGF-β type II receptor ectodomain (RII) (receptor)
chain: NGAVKFPQLCKFCDVRFSTCDNQKSCMSNCSITSICEKPQEVCVAVWRKNDENITLETVCHDPKLPYHDFILEDAASPKCIMKEKKKPGETFFMCSCSSDECNDNIIFSEEYNTSNPD
B2: RII-RIII (REU) fusion (other)
chain: AAANGAVKFPQLCKFCDVRFSTCDNQKSCMSNCSITSICEKPQEVCVAVWRKNDENITLETVCHDPKLPYHDFILEDAASPKCIMKEKKKPGETFFMCSCSSDECNDNIIFSEEYNTSNPDGLGPVESSPGHGLDTAAACELSPINASHPVQALMESFTVLSGCASRGTTGLPREVHVLNLRSTDQGPGQRQREVTLHLNPIASVHTHHKPIVFLLNSPQPLVWHLKTERLAAGVPRLFLVSEGSVVQFPSGNFSLTAETEERNFPQENEHLLRWAQKEYGAVTSFTELKIARNIYIKVGEDQVFPPTCNIGKNFLSLNYLAEYLQPKAAEGCVLPSQPHEKEVHIIELITPSSNPYSAFQVDIIVDIRPAQEDPEVVKNLVLILKCKKSVNWVIKSFDVKGNLKVIAPNSIGFGKESERSMTMTKLVRDDIPSTQENLMKWALDNGYRPVTSYTMAPVANRFHLRLENNEEMRDEEVHTIPPELRILLDPDHPPALDNPLFPGEGSPNGGLPFPFPDIPRRGWKEGEDRIPRPKQPIVPSVQLLPDHREPEEVQGGVDIALSVKCDHEKMVVAVDKDSFQTNGYSGMELTLLDPSCKAKMNGTHFVLESPLNGCGTRHRRSTPDGVVYYNSIVVQAPSPGDSAGWPDGYEDLEAGDNGFPGDGDEGETAPLSRAGVVVFNCSLRQLRNPSGFQGQLDGNATFNMELYNTDLFLVPSPGVFSVAENEHVYVEVSVTKADQDLGFAIQTCFLSPYSNPDRMSDYTIIENICPKDDSVKFYSSKRVHFPIPHAEVDKKRFSFLFKSVFNTSLLFLHCELTLCSRKKGSLKLPRCVTPDDACTSLDATMIWTMMQNKKTFTKPLAVVLQVD
B3: purified TGF-β type III receptor ectodomain (RIII) (receptor)
chain: CELSPINASHPVQALMESFTVLSGCASRGTTGLPREVHVLNLRSTDQGPGQRQREVTLHLNPIASVHTHHKPIVFLLNSPQPLVWHLKTERLAAGVPRLFLVSEGSVVQFPSGNFSLTAETEERNFPQENEHLLRWAQKEYGAVTSFTELKIARNIYIKVGEDQVFPPTCNIGKNFLSLNYLAEYLQPKAAEGCVLPSQPHEKEVHIIELITPSSNPYSAFQVDIIVDIRPAQEDPEVVKNLVLILKCKKSVNWVIKSFDVKGNLKVIAPNSIGFGKESERSMTMTKLVRDDIPSTQENLMKWALDNGYRPVTSYTMAPVANRFHLRLENNEEMRDEEVHTIPPELRILLDPDHPPALDNPLFPGEGSPNGGLPFPFPDIPRRGWKEGEDRIPRPKQPIVPSVQLLPDHREPEEVQGGVDIALSVKCDHEKMVVAVDKDSFQTNGYSGMELTLLDPSCKAKMNGTHFVLESPLNGCGTRHRRSTPDGVVYYNSIVVQAPSPGDSAGWPDGYEDLEAGDNGFPGDGDEGETAPLSRAGVVVFNCSLRQLRNPSGFQGQLDGNATFNMELYNTDLFLVPSPGVFSVAENEHVYVEVSVTKADQDLGFAIQTCFLSPYSNPDRMSDYTIIENICPKDDSVKFYSSKRVHFPIPHAEVDKKRFSFLFKSVFNTSLLFLHCELTLCSRKKGSLKLPRCVTPDDACTSLDATMIWTMMQNKKTFTKPLAVVLQVD
notes: EU was made in CHO Lec 3.2.8.1 cells and purified on NiNTA, which implies a His tag that is not explicitly stated for EU; also called EU; RIII (EU)

Key:
[1] = molecular target: T1, TGF-β2 K25R I92V K94R (TGF-β2TM); test: SPR, RII injected over immobilized TGF-β2TM with or without 80 nM RIII (competitor RIII)
Protocol: (§1) FIG. 2. RII (R) and RIII (EU) form a 1:1:1 complex with TGF-β homodimers. (a) SPR sensorgrams in which increasing concentrations of RII and RIII were injected over a SPR sensor surface with immobilized TGF-β2TM. Mass normalized sensorgrams are shown in panels on the left. Plots of the mass normalized equilibrium response (Req) as a function of receptor concentration ([Receptor]), along with fits to Req=(Rₘₐₓ×[Receptor])/(Kd+[Receptor]), are shown on the right.
The TGF-β type III receptor potentiates the binding of the TGF-β type II receptor, but reduces its binding stoichiometry to one per TGF-β homodimer. This was shown by performing SPR experiments in which increasing concentrations of RII were injected over immobilized TGF-β2TM in the absence or presence of a saturating concentration of RIII (80 nM) (FIG. 2b).

[2] = molecular target: T1, TGF-β2 K25R I92V K94R (TGF-β2TM); test: SDS-PAGE densitometry of the SEC-isolated complex (TGF-β2TM 51.6 pmol)
From the text: RII:RIII:TGF-β2TM form a stable non-disassociating 1:1:1 complex in solution. […] The mixture was applied to a Superdex 200 size exclusion chromatography column and the UV absorbance of the column eluate at 280 nm was monitored. […] To determine the stoichiometry of the complex, a sample of the isolated RII:RIII:TGFβ2-TM complex was run on an SDS-PAGE gel along with known amounts of the individual components (FIG. 3d).

TGF-β3 = molecular target: T2, TGF-β3; test: SPR competition, receptor with 0.8 nM TGF-β3 over immobilized 1D11
Protocol: FIG. 6. SPR competition binding data in which increasing concentrations of RII (R), RIII (EU), and RII-RIII (REU) were pre-incubated with 0.8 nM TGF-β3 for 16 h and then injected over a high-density (20000 RU) SPR surface with the TGF-β monoclonal antibody 1D11. Data is presented in terms of the initial slope (which is directly proportional to the concentration of the free TGF-β3 concentration) as a function of the competitor (R, EU, or REU) concentration. Two independent measurements were performed for each of the receptor constructs studied (designated by −a and −b in the legend).
The initial slope of these sensorgrams, which is a linear function of the free TGF-β3 concentration, was then plotted as a function of the concentration of RII, RIII (EU), or RII-RIII (REU) (FIG. 6).

[3] = molecular target: T1, TGF-β2 K25R I92V K94R (TGF-β2TM); test: SPR, receptor injected over immobilized TGF-β2TM
Protocol: as §1
The TGF-β type III receptor binds TGF-β dimers with 1:1 stoichiometry. This was shown by comparing the maximal mass-normalized SPR response as increasing concentrations of the purified TGF-β type II receptor ectodomain (RII) and purified TGF-β type III receptor ectodomain (RIII) were injected over immobilized TGF-β2 K25R I92V K94R (TGF-β2TM), a variant of TGF-β2 that binds RII with high affinity (Baardsnes et al, 2009, Biochemistry, 48, 2146-2155; De Crescenzo et al, 2006, J Mol Biol, 355, 47-62).

Binder	fold reduction of the maximal mass normalized binding response in the presence of 80 nM RIII [1]	amount in the isolated RII:RIII:TGF-β2TM complex [2]	decrease of EC50 relative to RII or RIII (EU) (TGF-β3)	maximal mass-normalized response relative to that of RII [3]
B1	2 fold	61.8 pmol	–	–
B2	–	–	≥ 0.5 log units and ~3 fold	–
B3	–	62.4 pmol	–	~0.5 fold (ratio to RII)
